Values quoted from earlier work, collected in patent US20150246140A1, “COMPOSITIONS AND METHODS FOR MODULATING SLEEP AND WAKEFULNESS” (California Institute of Technology, priority 2014, published 2015).

What was measured:
NPR-22 = biological target: T1, NPR-22 (Caenorhabditis elegans, UniProt Q59E83); details: FLP-13 peptides P1-P9, FIG. 6 legend
T1 sequence (Q59E83 1-434): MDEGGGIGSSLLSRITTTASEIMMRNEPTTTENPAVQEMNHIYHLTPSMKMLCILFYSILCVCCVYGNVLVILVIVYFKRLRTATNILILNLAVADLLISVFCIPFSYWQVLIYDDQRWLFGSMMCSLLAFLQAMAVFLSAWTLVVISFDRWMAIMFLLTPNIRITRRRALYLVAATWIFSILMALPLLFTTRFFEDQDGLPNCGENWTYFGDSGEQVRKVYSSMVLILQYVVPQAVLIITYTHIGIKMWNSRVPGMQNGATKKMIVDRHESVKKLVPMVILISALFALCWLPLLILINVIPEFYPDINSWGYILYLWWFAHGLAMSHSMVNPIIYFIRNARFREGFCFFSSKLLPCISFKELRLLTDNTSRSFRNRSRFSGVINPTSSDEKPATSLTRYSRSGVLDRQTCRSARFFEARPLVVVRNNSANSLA

A. suum muscle strips = details: FLP-13 peptides P1-P9, FIG. 6 legend

Sequence | activate calcium response via NPR-22 using the fluorescence assay (NPR-22) | effect on A. suum muscle strips (A. suum muscle strips)
AADGAPLIRF [C. elegans RFamide peptide of gene flp-13; P2 and P4 are repeated copies] | can activate calcium response | inhibitory effects
APEASPLIRF [C. elegans RFamide peptide of gene flp-13; P3 and P5 are repeated copies] | – | inhibitory effects
ASPSAPLIRF [C. elegans RFamide peptide of gene flp-13] | can activate calcium response | –
ASSAPLIRF [C. elegans RFamide peptide of gene flp-13] | can activate calcium response | –
SAAAPLIRF [C. elegans RFamide peptide of gene flp-13] | can activate calcium response | –
SPSAVPLIRF [C. elegans RFamide peptide of gene flp-13] | can activate calcium response | excitatory effect
